This passage reports stoichiometry N results from article doi:10.1101/2022.01.02.474068.

This assay has as its target BTN2A1 B30.2 domain (human). As to the kind of experiment: SEC-MALS. On the technique in general: SEC sorts molecules by how far they enter the pores of the column.

Substance “BTN2A1 B30.2 domain (domain or fragment)” registered a stoichiometry N of 2.

The stoichiometry N is a count of units in the complex or per binding partner.
